Data: patent US20080292760A1, “Semi-Solid Food Products and Methods For Their Production, Based on Inhibiting Amylase Starch Breakdown” (WAGENINGEN CENTRE FOR FOOD SCIENCES, priority 2004, published 2008)

Experiment: amylase study: sensory rating of vanilla custard desserts with added amylase
Assay type: in vivo, human
Procedure: The role of salivary amylase in modifying texture sensations was evaluated in the following examples, in which the level of amylase activity was varied within subjects, rather than between subjects. Alpha-amylase was added in varying concentrations to starch and CMC (non-starch)-based vanilla custard desserts. Additionally, amylase activity was inhibited to various degrees by adding the pharmaceutical amylase inhibitor Acarbose (CAS nr. 56180-94-0) in various concentrations to the same test foods.
Eighteen subjects, 11 females and 7 males aged between 18 and 34 yrs, participated the ‘amylase study’ and 7 different subjects, all females aged between 39 and 56 yrs, participated in the ‘acarbose study’. The subjects participating in the latter study had been informed about acarbose and its possibly side effects if swallowed. To avoid these side effects, subjects expectorated rather than swallowed the acarbose samples. All subjects signed consent forms expressing their willingness to participate in the studies, and all had previously been screened for olfactory and taste disorders and had received extensive training in the description of sensory mouthfeel and afterfeel attributes for semi-solid foods. Testing took place at the sensory facilities of TNO-Nutrition and Food Research in Zeist, The Netherlands.
For the ‘amylase study’, two commercially available full-fat vanilla custard desserts (3 wt % fat AH vanille vla or “AH”, Albert Heijn Corp., Zaandam, The Netherlands; and 3 wt % fat Boerenland via or “BL”, Campina Corp., Woerden, The Netherlands) were used as the two starch-based vanilla custard desserts. For the ‘acarbose study’, Boerenland via was used again but the Albert Heijn via was replaced by a low-fat dairy custard (0.1 wt % fat Creamex, Creamex Corp., Rijkervoort, The Netherlands).
In both studies, the effect of amylase and acarbose on starch-based custards was compared with their effects on non-starch custards to verify amylase-starch interactions. A non-starch custard was produced using full-fat (3 wt %) commercially available milk (Campina Corp., Woerden, The Netherlands) and adding 0.85 wt % of sodium carboxy methylcellulose (or “CMC”) (Akuell AF 3295, Akzo Nobel Corp., Amersfoort, The Netherlands), 6.25 wt % of sugar and 0.33 wt % of vanilla powder. Yellow colorant (Egg yellow, Supercook, Leeds, United Kingdom) was added at 3.33 ml/l custard to match the color of the starch-based custards.
For the amylase study, a bacterial α-amylase (from Bacillus licheniformis, with 15 wt % NaCl and 25 wt % sucrose, Sigma Corp., Zwijndrecht, The Netherlands) was used to prepare amylase solutions at concentrations of 40, 160, and 640 units in 100 μl aliquots of water. This concentration range is similar to the range of individual amylase levels found across a group of young and healthy subjects (Engelen, unpublished results). The amylase concentrations, including a control of 0 units, were added to 5 ml samples of the starch-based custards. Only the highest concentration, 640 units, and the control were added to 5 ml samples of the CMC custard.
Panelists were seated in sensory booths with appropriate ventilation and lighting. Testing took place over either 3 (‘amylase study’) or 1.5 (‘acarbose study’) sessions of 2 hours. Within each session, subjects were presented with 20 trials during which they received in the amylase study each of the three custards once with the various amounts of amylase and with two different processing instructions. Over the 3 sessions, each custard was presented 3 times in each condition. In the ‘acarbose study’, each of the three custards with various amounts of acarbose were presented twice in the first session, and once in the second half session. The stimulus presentation order was randomized per subject and per session. The trials were presented at an average rate of one trial per 5 minutes. A break separated the first and the second half of each session. […]

[1] = R, AH custard, amylase 40 units
[2] = R, AH custard, amylase 160 units
[3] = R, AH custard, amylase 640 units
[4] = R, BL custard, amylase 40 units
[5] = R, BL custard, amylase 160 units
[6] = R, BL custard, amylase 640 units
[7] = R, CMC custard, amylase 640 units
[8] = U, AH custard, amylase 40 units
[9] = U, AH custard, amylase 160 units
[10] = U, AH custard, amylase 640 units
[11] = U, BL custard, amylase 40 units
[12] = U, BL custard, amylase 160 units
[13] = U, BL custard, amylase 640 units
[14] = U, CMC custard, amylase 640 units

decrease of creamy mouthfeel (AH custard, amylase added): up to 25% | airy-mo [1]: 25 | bitter/chem-fl [1]: 30 | creamy-af [1]: 38 | creamy-mo [1]: 44 | fatty-af [1]: 29 | heterogeneous-mo [1]: 26 | prickling-mo [1]: 19 | rough-af [1]: 26 | smooth-mo [1]: 65 | sticky-af [1]: 28 | temperature-mo [1]: 38 | thick-mo [1]: 41 | airy-mo [2]: 25 | bitter/chem-fl [2]: 38 | creamy-af [2]: 35 | creamy-mo [2]: 37 | fatty-af [2]: 31 | heterogeneous-mo [2]: 29 | prickling-mo [2]: 20 | rough-af [2]: 25 | smooth-mo [2]: 62 | sticky-af [2]: 29 | temperature-mo [2]: 35 | thick-mo [2]: 38 | airy-mo [3]: 25 | bitter/chem-fl [3]: 44 | creamy-af [3]: 34 | creamy-mo [3]: 35 | fatty-af [3]: 29 | heterogeneous-mo [3]: 33 | prickling-mo [3]: 25 | rough-af [3]: 23 | smooth-mo [3]: 61 | sticky-af [3]: 29 | temperature-mo [3]: 38 | thick-mo [3]: 41 | airy-mo [4]: 28 | bitter/chem-fl [4]: 22 | creamy-af [4]: 35 | creamy-mo [4]: 43 | fatty-af [4]: 28 | heterogeneous-mo [4]: 24 | prickling-mo [4]: 17 | rough-af [4]: 28 | smooth-mo [4]: 63 | sticky-af [4]: 29 | temperature-mo [4]: 37 | thick-mo [4]: 41 | airy-mo [5]: 29 | bitter/chem-fl [5]: 32 | creamy-af [5]: 35 | creamy-mo [5]: 45 | fatty-af [5]: 30 | heterogeneous-mo [5]: 27 | prickling-mo [5]: 19 | rough-af [5]: 26 | smooth-mo [5]: 63 | sticky-af [5]: 29 | temperature-mo [5]: 37 | thick-mo [5]: 40 | airy-mo [6]: 25 | bitter/chem-fl [6]: 40 | creamy-af [6]: 37 | creamy-mo [6]: 37 | fatty-af [6]: 30 | heterogeneous-mo [6]: 32 | prickling-mo [6]: 23 | rough-af [6]: 26 | smooth-mo [6]: 64 | sticky-af [6]: 29 | temperature-mo [6]: 37 | thick-mo [6]: 38 | airy-mo [7]: 36 | bitter/chem-fl [7]: 45 | creamy-af [7]: 39 | creamy-mo [7]: 39 | fatty-af [7]: 36 | heterogeneous-mo [7]: 34 | prickling-mo [7]: 25 | rough-af [7]: 21 | smooth-mo [7]: 47 | sticky-af [7]: 37 | temperature-mo [7]: 44 | thick-mo [7]: 49 | vanilla-fl [7]: 30 | airy-mo [8]: 25 | bitter/chem-fl [8]: 35 | creamy-af [8]: 36 | creamy-mo [8]: 44 | fatty-af [8]: 29 | heterogeneous-mo [8]: 28 | prickling-mo [8]: 19 | rough-af [8]: 30 | smooth-mo [8]: 62 | sticky-af [8]: 31 | temperature-mo [8]: 41 | thick-mo [8]: 39 | airy-mo [9]: 27 | bitter/chem-fl [9]: 37 | creamy-af [9]: 37 | creamy-mo [9]: 39 | fatty-af [9]: 28 | heterogeneous-mo [9]: 27 | prickling-mo [9]: 19 | rough-af [9]: 27 | smooth-mo [9]: 65 | sticky-af [9]: 28 | temperature-mo [9]: 39 | thick-mo [9]: 38 | airy-mo [10]: 26 | bitter/chem-fl [10]: 47 | creamy-af [10]: 34 | creamy-mo [10]: 36 | fatty-af [10]: 28 | heterogeneous-mo [10]: 28 | prickling-mo [10]: 22 | rough-af [10]: 27 | smooth-mo [10]: 66 | sticky-af [10]: 31 | temperature-mo [10]: 40 | thick-mo [10]: 32 | airy-mo [11]: 27 | bitter/chem-fl [11]: 27 | creamy-af [11]: 37 | creamy-mo [11]: 42 | fatty-af [11]: 28 | heterogeneous-mo [11]: 27 | prickling-mo [11]: 17 | rough-af [11]: 30 | smooth-mo [11]: 65 | sticky-af [11]: 31 | temperature-mo [11]: 42 | thick-mo [11]: 37 | airy-mo [12]: 26 | bitter/chem-fl [12]: 32 | creamy-af [12]: 38 | creamy-mo [12]: 43 | fatty-af [12]: 29 | heterogeneous-mo [12]: 27 | prickling-mo [12]: 17 | rough-af [12]: 31 | smooth-mo [12]: 62 | sticky-af [12]: 32 | temperature-mo [12]: 42 | thick-mo [12]: 41 | airy-mo [13]: 27 | bitter/chem-fl [13]: 38 | creamy-af [13]: 35 | creamy-mo [13]: 39 | fatty-af [13]: 29 | heterogeneous-mo [13]: 33 | prickling-mo [13]: 20 | rough-af [13]: 31 | smooth-mo [13]: 66 | sticky-af [13]: 34 | temperature-mo [13]: 41 | thick-mo [13]: 37 | airy-mo [14]: 46 | bitter/chem-fl [14]: 52 | creamy-af [14]: 39 | creamy-mo [14]: 40 | fatty-af [14]: 41 | heterogeneous-mo [14]: 38 | prickling-mo [14]: 24 | rough-af [14]: 21 | smooth-mo [14]: 49 | sticky-af [14]: 44 | temperature-mo [14]: 48 | thick-mo [14]: 53 | vanilla-fl [14]: 29 | intensity of bitter/chemical flavor, change when amylase added (non-starch CMC-based custard, p=0.01): increased | bitter/chemical flavor, change with increasing amylase concentration (starch-based custards): increased significantly | creamy mouthfeel, change with increasing amylase concentration (starch-based custards, p<0.0001): decreased | vanilla flavor, change with increasing amylase concentration (starch-based custards, p=0.001): decreased | thick mouthfeel, change with increasing amylase concentration (starch-based custards, p=0.004): decreased | heterogeneous mouthfeel, change with increasing amylase concentration (starch-based custards, p=0.006): increased significantly | fatty afterfeel, change with increasing amylase concentration (starch-based custards, p=0.05): decreased
B1: Amylase: bacterial α-amylase from Bacillus licheniformis, with 15 wt % NaCl and 25 wt % sucrose, Sigma Corp. (protein, UniProt P06278 30-512, looked up)
Alpha-amylase: ANLNGTLMQYFEWYMPNDGQHWKRLQNDSAYLAEHGITAVWIPPAYKGTSQADVGYGAYDLYDLGEFHQKGTVRTKYGTKGELQSAIKSLHSRDINVYGDVVINHKGGADATEDVTAVEVDPADRNRVISGEHRIKAWTHFHFPGRGSTYSDFKWHWYHFDGTDWDESRKLNRIYKFQGKAWDWEVSNENGNYDYLMYADIDYDHPDVAAEIKRWGTWYANELQLDGFRLDAVKHIKFSFLRDWVNHVREKTGKEMFTVAEYWQNDLGALENYLNKTNFNHSVFDVPLHYQFHAASTQGGGYDMRKLLNSTVVSKHPLKAVTFVDNHDTQPGQSLESTVQTWFKPLAYAFILTRESGYPQVFYGDMYGTKGDSQREIPALKHKIEPILKARKQYAYGAQHDYFDHHDIVGWTREGDSSVANSGLAALITDGPGGAKRMYVGRQNAGETWHDITGNRSEPVVINSEGWGEFHVNGGSVSIYVQR
modifications: formulated with NaCl and sucrose
melting-mo [7]: 35 | melting-mo [14]: 32 | effect on odor, mouthfeel or afterfeel attributes (non-starch CMC-based custard, added amylase): failed to affect any of the odor, mouthfeel or afterfeel attributes | melting mouthfeel, change with increasing amylase concentration (starch-based custards, p=0.001): increased significantly
